The values that follow come from patent publication US20250136702A1, “HUMAN LIFR ANTIGEN BINDING PROTEIN, PREPARATION METHOD THEREFOR, AND APPLICATION THEREOF” (NONA BIOSCIENCES (SUZHOU) CO., LTD., priority 2020, published 2025).

Assay [1] deals with human LIFR/gp130 heterodimer expressed on the surface of 293T cells (human) (UniProt P42702). Briefly: flow cytometry on HEK293T-huLIFR/gp130 cells, median fluorescence, span of the fitted curve. In general terms: In flow cytometry, cells or beads pass a laser one at a time.
Assay [2] has as its target human LIFR expressed on the surface of 293T cells (human) (UniProt P42702). As to the kind of experiment: flow cytometry on HEK293T-huLIFR cells, median fluorescence, span of the fitted curve.

Chain of human LIFR expressed on the surface of 293T cells (human) (P42702 45-1097): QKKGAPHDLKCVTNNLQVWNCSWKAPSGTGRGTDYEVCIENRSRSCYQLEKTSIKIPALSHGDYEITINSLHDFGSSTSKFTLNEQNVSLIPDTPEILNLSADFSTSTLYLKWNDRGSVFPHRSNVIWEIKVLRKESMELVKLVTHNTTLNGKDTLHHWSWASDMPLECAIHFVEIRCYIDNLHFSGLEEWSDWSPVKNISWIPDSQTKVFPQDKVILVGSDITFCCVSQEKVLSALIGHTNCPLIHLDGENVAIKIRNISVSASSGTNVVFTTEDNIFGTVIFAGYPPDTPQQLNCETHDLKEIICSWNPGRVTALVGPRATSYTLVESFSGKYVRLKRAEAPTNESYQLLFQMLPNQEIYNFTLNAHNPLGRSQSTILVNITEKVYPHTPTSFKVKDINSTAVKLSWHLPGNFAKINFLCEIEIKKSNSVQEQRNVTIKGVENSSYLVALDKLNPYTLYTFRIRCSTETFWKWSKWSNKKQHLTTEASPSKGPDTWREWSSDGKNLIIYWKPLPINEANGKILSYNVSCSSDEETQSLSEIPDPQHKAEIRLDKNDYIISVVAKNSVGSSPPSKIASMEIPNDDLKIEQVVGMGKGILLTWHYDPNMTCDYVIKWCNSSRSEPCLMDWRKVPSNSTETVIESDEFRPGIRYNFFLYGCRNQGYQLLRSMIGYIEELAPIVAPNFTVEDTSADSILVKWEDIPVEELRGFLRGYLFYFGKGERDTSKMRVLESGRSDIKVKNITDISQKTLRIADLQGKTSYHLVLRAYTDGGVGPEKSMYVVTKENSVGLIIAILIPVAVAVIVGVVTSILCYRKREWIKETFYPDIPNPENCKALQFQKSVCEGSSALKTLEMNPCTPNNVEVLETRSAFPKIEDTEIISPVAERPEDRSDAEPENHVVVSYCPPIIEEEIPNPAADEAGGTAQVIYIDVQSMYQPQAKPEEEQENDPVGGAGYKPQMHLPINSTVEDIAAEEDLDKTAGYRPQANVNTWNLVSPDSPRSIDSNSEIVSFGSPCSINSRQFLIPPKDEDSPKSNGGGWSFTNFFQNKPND
Chain of human LIFR/gp130 heterodimer expressed on the surface of 293T cells (human) (P42702 45-1097, chain 1 of 2): as the sequence (P42702 45-1097) above
Chain of human LIFR/gp130 heterodimer expressed on the surface of 293T cells (human) (P40189 23-918, chain 2 of 2, further chain): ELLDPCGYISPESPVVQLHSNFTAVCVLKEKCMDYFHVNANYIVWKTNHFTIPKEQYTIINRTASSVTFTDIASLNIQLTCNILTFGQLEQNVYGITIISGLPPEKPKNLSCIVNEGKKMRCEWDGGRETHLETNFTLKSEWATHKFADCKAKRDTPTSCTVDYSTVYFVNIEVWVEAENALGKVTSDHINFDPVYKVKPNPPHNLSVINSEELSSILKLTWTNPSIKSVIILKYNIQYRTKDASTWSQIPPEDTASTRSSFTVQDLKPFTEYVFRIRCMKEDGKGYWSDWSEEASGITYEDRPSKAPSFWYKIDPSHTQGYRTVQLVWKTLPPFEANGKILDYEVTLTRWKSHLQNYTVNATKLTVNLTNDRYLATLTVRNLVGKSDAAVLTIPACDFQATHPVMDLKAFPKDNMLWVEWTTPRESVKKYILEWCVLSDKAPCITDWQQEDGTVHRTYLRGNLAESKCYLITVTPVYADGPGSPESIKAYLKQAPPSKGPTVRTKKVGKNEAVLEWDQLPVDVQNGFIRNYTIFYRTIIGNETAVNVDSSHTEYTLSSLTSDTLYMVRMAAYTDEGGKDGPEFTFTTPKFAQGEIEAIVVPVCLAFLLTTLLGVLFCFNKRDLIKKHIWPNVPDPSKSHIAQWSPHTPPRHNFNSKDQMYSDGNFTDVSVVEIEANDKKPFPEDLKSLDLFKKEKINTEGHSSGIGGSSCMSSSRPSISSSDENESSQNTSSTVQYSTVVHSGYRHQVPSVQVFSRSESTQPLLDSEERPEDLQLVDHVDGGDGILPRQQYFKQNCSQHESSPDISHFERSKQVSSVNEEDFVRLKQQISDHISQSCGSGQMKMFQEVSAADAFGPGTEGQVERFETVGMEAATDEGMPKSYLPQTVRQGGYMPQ

For the substance hIgG1 (antibody), the Span in assay [1] is 90.1; in assay [2], 12.
